Reference: US20220040297A1 (Chugai, published 2022)
Numbering of substitutions follows the chain as printed.

B1: GLS3000 L27bW (antibody, name in Kabat numbering, V domains shown)
VH: QVQLVESGGGVVQPGRSLRLSCAASGFTFSNAWMHWVRQAPGKGLEWVAQIKAKSNNYATYYAESVKGRFTISRDDSKNSLYLQMNSLKTEDTAVYYCRYVHYGAYYGVDAWGQGTTVTVSS
VL: DIVMTQSPLSLPVTPGEPASISCRSSQSWVHSNRNTYLHWYQQKPGQAPRLLIYKVSNRFSGVPDRFSGSGSGTDFTLKISRVEAEDVGVYYCGQGTQVPYTFGQGTKLEIK
notes: one-arm format as m2
B2: GLS3000 L27bY (antibody, name in Kabat numbering, V domains shown)
VH: B1 VH
VL: B1 VL with W29Y
notes: one-arm format as m2
B3: GLS3000 L33A (antibody, name in Kabat numbering, V domains shown)
VH: B1 VH
VL: B1 VL with W29L, L38A
notes: one-arm format as m2
B4: GLS3000 L33D (antibody, name in Kabat numbering, V domains shown)
VH: B1 VH
VL: B1 VL with W29L, L38D
notes: one-arm format as m2
B5: GLS3000 L33E (antibody, name in Kabat numbering, V domains shown)
VH: B1 VH
VL: B1 VL with W29L, L38E
notes: one-arm format as m2
B6: GLS3000 L33F (antibody, name in Kabat numbering, V domains shown)
VH: B1 VH
VL: B1 VL with W29L, L38F
notes: one-arm format as m2
B7: GLS3000 L33I (antibody, name in Kabat numbering, V domains shown)
VH: B1 VH
VL: B1 VL with W29L, L38I
notes: one-arm format as m2
B8: GLS3000 L33M (antibody, name in Kabat numbering, V domains shown)
VH: B1 VH
VL: B1 VL with W29L, L38M
notes: one-arm format as m2
B9: GLS3000 L33P (antibody, name in Kabat numbering, V domains shown)
VH: B1 VH
VL: B1 VL with W29L, L38P
notes: one-arm format as m2
B10: GLS3000 L33V (antibody, name in Kabat numbering, V domains shown)
VH: B1 VH
VL: B1 VL with W29L, L38V
notes: one-arm format as m2
B11: GLS3000 N28A (antibody, name in Kabat numbering, V domains shown)
VH: B1 VH
VL: B1 VL with W29L, N33A
notes: one-arm format as m2
B12: GLS3000 N28D (antibody, name in Kabat numbering, V domains shown)
VH: B1 VH
VL: B1 VL with W29L, N33D
notes: one-arm format as m2
B13: GLS3000 N28E (antibody, name in Kabat numbering, V domains shown)
VH: B1 VH
VL: B1 VL with W29L, N33E
notes: one-arm format as m2
B14: GLS3000 N28F (antibody, name in Kabat numbering, V domains shown)
VH: B1 VH
VL: B1 VL with W29L, N33F
notes: one-arm format as m2
B15: GLS3000 N28G (antibody, name in Kabat numbering, V domains shown)
VH: B1 VH
VL: B1 VL with W29L, N33G
notes: one-arm format as m2
B16: GLS3000 N28H (antibody, name in Kabat numbering, V domains shown)
VH: B1 VH
VL: B1 VL with W29L, N33H
notes: one-arm format as m2
B17: GLS3000 N28I (antibody, name in Kabat numbering, V domains shown)
VH: B1 VH
VL: B1 VL with W29L, N33I
notes: one-arm format as m2
B18: GLS3000 N28K (antibody, name in Kabat numbering, V domains shown)
VH: B1 VH
VL: B1 VL with W29L, N33K
notes: one-arm format as m2
B19: GLS3000 N28L (antibody, name in Kabat numbering, V domains shown)
VH: B1 VH
VL: B1 VL with W29L, N33L
notes: one-arm format as m2
B20: GLS3000 N28M (antibody, name in Kabat numbering, V domains shown)
VH: B1 VH
VL: B1 VL with W29L, N33M
notes: one-arm format as m2
B21: GLS3000 N28P (antibody, name in Kabat numbering, V domains shown)
VH: B1 VH
VL: B1 VL with W29L, N33P
notes: one-arm format as m2
B22: GLS3000 N28Q (antibody, name in Kabat numbering, V domains shown)
VH: B1 VH
VL: B1 VL with W29L, N33Q
notes: one-arm format as m2
B23: GLS3000 N28S (antibody, name in Kabat numbering, V domains shown)
VH: B1 VH
VL: B1 VL with W29L, N33S
notes: one-arm format as m2
B24: GLS3000 N28T (antibody, name in Kabat numbering, V domains shown)
VH: B1 VH
VL: B1 VL with W29L, N33T
notes: one-arm format as m2
B25: GLS3000 N28V (antibody, name in Kabat numbering, V domains shown)
VH: B1 VH
VL: B1 VL with W29L, N33V
notes: one-arm format as m2
B26: GLS3000 N28W (antibody, name in Kabat numbering, V domains shown)
VH: B1 VH
VL: B1 VL with W29L, N33W
notes: one-arm format as m2
B27: GLS3000 N28Y (antibody, name in Kabat numbering, V domains shown)
VH: B1 VH
VL: B1 VL with W29L, N33Y
notes: one-arm format as m2
B28: GLS3000 N30A (antibody, name in Kabat numbering, V domains shown)
VH: B1 VH
VL: B1 VL with W29L, N35A
notes: one-arm format as m2
B29: GLS3000 N30D (antibody, name in Kabat numbering, V domains shown)
VH: B1 VH
VL: B1 VL with W29L, N35D
notes: one-arm format as m2
B30: GLS3000 N30E (antibody, name in Kabat numbering, V domains shown)
VH: B1 VH
VL: B1 VL with W29L, N35E
notes: one-arm format as m2
B31: GLS3000 N30F (antibody, name in Kabat numbering, V domains shown)
VH: B1 VH
VL: B1 VL with W29L, N35F
notes: one-arm format as m2
B32: GLS3000 N30G (antibody, name in Kabat numbering, V domains shown)
VH: B1 VH
VL: B1 VL with W29L, N35G
notes: one-arm format as m2
B33: GLS3000 N30H (antibody, name in Kabat numbering, V domains shown)
VH: B1 VH
VL: B1 VL with W29L, N35H
notes: one-arm format as m2
B34: GLS3000 N30I (antibody, name in Kabat numbering, V domains shown)
VH: B1 VH
VL: B1 VL with W29L, N35I
notes: one-arm format as m2
B35: GLS3000 N30K (antibody, name in Kabat numbering, V domains shown)
VH: B1 VH
VL: B1 VL with W29L, N35K
notes: one-arm format as m2
B36: GLS3000 N30L (antibody, name in Kabat numbering, V domains shown)
VH: B1 VH
VL: B1 VL with W29L, N35L
notes: one-arm format as m2
B37: GLS3000 N30M (antibody, name in Kabat numbering, V domains shown)
VH: B1 VH
VL: B1 VL with W29L, N35M
notes: one-arm format as m2
B38: GLS3000 N30P (antibody, name in Kabat numbering, V domains shown)
VH: B1 VH
VL: B1 VL with W29L, N35P
notes: one-arm format as m2
B39: GLS3000 N30Q (antibody, name in Kabat numbering, V domains shown)
VH: B1 VH
VL: B1 VL with W29L, N35Q
notes: one-arm format as m2
B40: GLS3000 N30R (antibody, name in Kabat numbering, V domains shown)
VH: B1 VH
VL: B1 VL with W29L, N35R
notes: one-arm format as m2
B41: GLS3000 N30S (antibody, name in Kabat numbering, V domains shown)
VH: B1 VH
VL: B1 VL with W29L, N35S
notes: one-arm format as m2
B42: GLS3000 N30T (antibody, name in Kabat numbering, V domains shown)
VH: B1 VH
VL: B1 VL with W29L, N35T
notes: one-arm format as m2
B43: GLS3000 N30V (antibody, name in Kabat numbering, V domains shown)
VH: B1 VH
VL: B1 VL with W29L, N35V
notes: one-arm format as m2
B44: GLS3000 N30W (antibody, name in Kabat numbering, V domains shown)
VH: B1 VH
VL: B1 VL with W29L, N35W
notes: one-arm format as m2
B45: GLS3000 N30Y (antibody, name in Kabat numbering, V domains shown)
VH: B1 VH
VL: B1 VL with W29L, N35Y
notes: one-arm format as m2
B46: GLS3000 N53A (antibody, name in Kabat numbering, V domains shown)
VH: B1 VH
VL: B1 VL with W29L, N58A
notes: one-arm format as m2

Target: CD3ε homodimer protein (human, UniProt P07766 23-126, limits assumed)
Sequence (P07766 23-126 limits assumed): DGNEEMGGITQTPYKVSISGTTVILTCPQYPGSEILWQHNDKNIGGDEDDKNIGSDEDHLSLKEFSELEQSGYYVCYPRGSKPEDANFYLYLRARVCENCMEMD
Assay: SPR, immobilized CD3ε homodimer;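 note: biacore T200 surface plasmon resonance at 25 °C, antibody variants flowed as analytes over amine-coupled CD3ε homodimer on a CM4 chip, variant binding amount divided by that of GLS3000 antibody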

Binder	ratio of amounts bound (vs GLS3000)
B1	0.26
B2	0.25
B3	0.85
B4	0.17
B5	0.72
B6	0.78
B7	0.83
B8	0.93
B9	0.3
B10	1.05
B11	0.25
B12	0.19
B13	0.4
B14	0.46
B15	0.46
B16	0.42
B17	0.44
B18	0.44
B19	0.39
B20	0.39
B21	0.36
B22	0.37
B23	0.32

Binder	ratio of amounts bound (vs GLS3000)
B24	0.45
B25	0.36
B26	0.41
B27	0.26
B28	0.5
B29	0.34
B30	0.44
B31	1.1
B32	0.47
B33	0.98
B34	0.61
B35	1.65
B36	0.7
B37	0.8
B38	0.31
B39	0.87
B40	1.86
B41	0.29
B42	0.29
B43	0.61
B44	0.99
B45	1.04
B46	0.61
